Data: doi:10.1101/701250 (bioRxiv, 2019)
Where two headings read alike, the source gives them in different places.

B3: KIF3A purified from E. coli (natural protein, Mus musculus, UniProt P28741 1-701, looked up)
chain: MPINKSEKPESCDNVKVVVRCRPLNEREKSMCYRQAVSVDEMRGTITVHKTDSSNEPPKTFTFDTVFGPESKQLDVYNLTARPIIDSVLEGYNGTIFAYGQTGTGKTFTMEGVRAVPGLRGVIPNSFAHIFGHIAKAEGDTRFLVRVSYLEIYNEEVRDLLGKDQTQRLEVKERPDVGVYIKDLSAYVVNNADDMDRIMTLGHKNRSVGATNMNEHSSRSHAIFTITIECSEKGVDGNMHVRMGKLHLVDLAGSERQAKTGATGQRLKEATKINLSLSTLGNVISALVDGKSTHVPYRNSKLTRLLQDSLGGNSKTMMCANIGPADYNYDETISTLRYANRAKNIKNKARINEDPKDALLRQFQKEIEELKKKLEEGEEVSGSDISGSEEDDEEGELGEDGEKKKKRRDQAGKKKVSPDKMVEMQAKIDEERKALETKLDMEEEERNKARAELERREKDLLKAQQEHQSLLEKLSALEKKVIVGGVDLLAKAEEQEKLLEESNMELEERRRRAEQLRKELEEKEQERLDIEEKYTSLQEEAQGKTKKLKKVWTMLMAAKSEMADLQQEHQREIEGLLENIRQLSRELRLQMLIIDNFIPQDYQEMIENYVHWNEDIGEWQLKCVAYTGNNMRKQTPVPDKKERDPFEVDLSHVYLAYTEESLRQSLMKLERPRTSKGKARPKMGRRKRSAKPETVIDSLLQ

What was measured:
full-length APC-GFP = full-length APC-GFP (Mus musculus, UniProt Q61315 1-2845); test: MST
Sequence of full-length APC-GFP (Q61315 whole entry): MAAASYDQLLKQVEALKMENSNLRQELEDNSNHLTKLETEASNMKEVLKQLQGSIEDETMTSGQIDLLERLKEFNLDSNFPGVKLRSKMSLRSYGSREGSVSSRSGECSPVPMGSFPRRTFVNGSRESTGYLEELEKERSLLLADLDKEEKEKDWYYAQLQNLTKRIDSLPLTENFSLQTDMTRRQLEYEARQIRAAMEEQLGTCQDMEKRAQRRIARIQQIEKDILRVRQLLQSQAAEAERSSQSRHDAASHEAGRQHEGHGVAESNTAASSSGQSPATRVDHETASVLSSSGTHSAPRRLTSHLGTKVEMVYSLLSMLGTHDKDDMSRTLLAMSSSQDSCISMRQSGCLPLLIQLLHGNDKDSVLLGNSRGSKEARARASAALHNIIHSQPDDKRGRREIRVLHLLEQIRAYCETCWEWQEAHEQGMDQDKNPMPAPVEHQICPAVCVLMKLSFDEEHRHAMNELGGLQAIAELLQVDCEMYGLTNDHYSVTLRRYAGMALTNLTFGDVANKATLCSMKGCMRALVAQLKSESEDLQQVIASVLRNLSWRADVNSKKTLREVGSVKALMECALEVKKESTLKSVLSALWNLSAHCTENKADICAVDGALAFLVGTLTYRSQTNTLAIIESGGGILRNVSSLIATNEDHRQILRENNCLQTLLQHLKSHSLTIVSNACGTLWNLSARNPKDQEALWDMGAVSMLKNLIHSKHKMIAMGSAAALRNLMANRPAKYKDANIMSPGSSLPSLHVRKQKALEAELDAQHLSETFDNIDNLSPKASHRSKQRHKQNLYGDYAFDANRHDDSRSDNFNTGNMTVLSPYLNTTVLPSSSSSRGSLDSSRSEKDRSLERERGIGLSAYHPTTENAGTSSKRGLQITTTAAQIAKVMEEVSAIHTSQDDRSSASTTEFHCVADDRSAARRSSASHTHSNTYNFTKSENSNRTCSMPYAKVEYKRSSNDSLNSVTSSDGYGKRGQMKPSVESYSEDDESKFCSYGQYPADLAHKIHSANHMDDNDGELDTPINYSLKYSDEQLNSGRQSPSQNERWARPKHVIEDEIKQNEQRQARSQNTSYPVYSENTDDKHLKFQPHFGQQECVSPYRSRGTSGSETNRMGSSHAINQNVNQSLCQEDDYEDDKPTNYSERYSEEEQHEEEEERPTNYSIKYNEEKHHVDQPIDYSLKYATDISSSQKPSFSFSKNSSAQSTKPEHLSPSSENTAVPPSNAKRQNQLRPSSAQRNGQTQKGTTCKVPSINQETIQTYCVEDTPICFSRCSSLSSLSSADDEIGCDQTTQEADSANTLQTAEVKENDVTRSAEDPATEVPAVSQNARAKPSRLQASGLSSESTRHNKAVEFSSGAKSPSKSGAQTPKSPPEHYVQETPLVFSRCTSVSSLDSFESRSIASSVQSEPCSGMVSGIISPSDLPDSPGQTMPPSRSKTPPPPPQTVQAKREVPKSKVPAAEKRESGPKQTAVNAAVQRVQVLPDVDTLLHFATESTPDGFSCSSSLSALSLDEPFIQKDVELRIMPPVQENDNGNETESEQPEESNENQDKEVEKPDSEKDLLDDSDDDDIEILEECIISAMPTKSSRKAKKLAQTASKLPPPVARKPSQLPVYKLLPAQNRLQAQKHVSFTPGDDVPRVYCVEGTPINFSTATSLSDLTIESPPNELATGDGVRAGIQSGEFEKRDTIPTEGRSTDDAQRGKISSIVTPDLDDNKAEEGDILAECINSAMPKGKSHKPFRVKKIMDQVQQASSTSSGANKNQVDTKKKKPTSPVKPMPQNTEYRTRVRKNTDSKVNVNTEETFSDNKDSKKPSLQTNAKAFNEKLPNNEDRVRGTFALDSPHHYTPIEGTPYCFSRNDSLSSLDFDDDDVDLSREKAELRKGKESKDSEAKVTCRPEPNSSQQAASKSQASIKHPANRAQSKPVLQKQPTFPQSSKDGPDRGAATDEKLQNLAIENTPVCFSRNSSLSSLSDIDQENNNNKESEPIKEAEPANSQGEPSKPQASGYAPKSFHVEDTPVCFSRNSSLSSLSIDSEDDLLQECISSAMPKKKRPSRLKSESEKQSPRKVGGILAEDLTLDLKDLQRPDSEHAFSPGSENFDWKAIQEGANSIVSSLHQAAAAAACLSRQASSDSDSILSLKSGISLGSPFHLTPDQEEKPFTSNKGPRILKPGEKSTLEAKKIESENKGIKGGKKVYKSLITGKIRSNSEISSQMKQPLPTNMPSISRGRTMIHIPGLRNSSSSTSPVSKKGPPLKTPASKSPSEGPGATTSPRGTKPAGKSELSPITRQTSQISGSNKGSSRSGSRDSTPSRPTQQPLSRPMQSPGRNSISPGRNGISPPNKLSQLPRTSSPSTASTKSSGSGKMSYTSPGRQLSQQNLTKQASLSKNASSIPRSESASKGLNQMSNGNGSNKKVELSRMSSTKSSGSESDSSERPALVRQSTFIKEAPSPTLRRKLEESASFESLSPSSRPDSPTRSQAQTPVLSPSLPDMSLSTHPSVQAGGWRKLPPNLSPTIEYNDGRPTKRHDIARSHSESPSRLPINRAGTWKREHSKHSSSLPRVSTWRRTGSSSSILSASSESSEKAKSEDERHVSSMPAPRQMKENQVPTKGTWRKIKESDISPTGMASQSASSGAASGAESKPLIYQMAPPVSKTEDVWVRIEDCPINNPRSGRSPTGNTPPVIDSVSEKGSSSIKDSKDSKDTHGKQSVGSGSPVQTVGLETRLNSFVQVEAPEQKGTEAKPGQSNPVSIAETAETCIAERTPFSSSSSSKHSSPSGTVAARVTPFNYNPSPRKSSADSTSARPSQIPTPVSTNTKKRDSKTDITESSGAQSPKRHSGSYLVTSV

[1] = target: B3; test: SEC-MALS
[2] = target: the molecule itself
SEC-MALS = target: the molecule itself; test: SEC-MALS

B1: KAP3 (separately purified) (natural protein, Mus musculus, UniProt P70188-1 1-793, looked up)
chain: MQGEDARYLKRKVKGGNIDVHPSEKALIVQYEVEATILGEMGDPMLGERKECQKIIRLKSLNANTDITSLARKVVEECKLIHPSKLSEVEQLLYYLQNRRDSLPGKEKKEKSSKPKDPPPFEGMEIDEVANINDMDEYIELLYEDIPDKVRGSALILQLARNPDNLEELLLNETALGALARVLREDWKQSVELATNIIYIFFCFSSFSHFHGLITHYKIGALCMNIIDHELKRHELWQEELSKKKKAVDEDLENQTLRKDYDKTFKKYQGLVVKQEQLLRVALYLLLNLAEDTRTELKMRNKNIVHMLVKALDRDNFELLILVVSFLKKLSIFMENKNDMVEMDIVEKLVKMIPCEHEDLLNITLRLLLNLSFDTGLRNKMVQVGLLPKLTALLGNENYKQIAMCVLYHISMDDRFKSMFAYTDCIPQLMKMLFECSDERIDLELISFCINLAANKRNVQLICEGNGLKMLMKRALKLKDPLLMKMIRNISQHDGPTKNLFIDYVGDLAAQISSDEEEEFVIECLGTLANLTIPDLDWELVLKEYKLVPFLKDKLKPGAAEDDLVLEVVIMIGTVSMDDSCAALLAKSGIIPALIELLNAQQEDDEFVCQIIYVFYQMVFHQATRDVIIKETQAPAYLIDLMHDKNNEIRKVCDNTLDIIAEYDEEWAKKIQSEKFRWHNSQWLEMVESRQLDESEQYLYGDDRIEPYIHEGDILERPDLFYNSDGLITSEGAISPDFFNDFHLQNGDVVGQHAFPGSLGMDGFGQPLGILGRPATAYGFRPDEPYYYSFGSR
In the case of B1, the binding result (full-length APC-GFP) is reported as “binds” and the “stoichiometry N” value [1] is reported as 1 KAP3 per KIF3A dimer.

B2: homodimeric KIF3A-SNAP labelled with Alexa647 or TMR (natural protein, Mus musculus, UniProt P28741 1-701, looked up)
chain: MPINKSEKPESCDNVKVVVRCRPLNEREKSMCYRQAVSVDEMRGTITVHKTDSSNEPPKTFTFDTVFGPESKQLDVYNLTARPIIDSVLEGYNGTIFAYGQTGTGKTFTMEGVRAVPGLRGVIPNSFAHIFGHIAKAEGDTRFLVRVSYLEIYNEEVRDLLGKDQTQRLEVKERPDVGVYIKDLSAYVVNNADDMDRIMTLGHKNRSVGATNMNEHSSRSHAIFTITIECSEKGVDGNMHVRMGKLHLVDLAGSERQAKTGATGQRLKEATKINLSLSTLGNVISALVDGKSTHVPYRNSKLTRLLQDSLGGNSKTMMCANIGPADYNYDETISTLRYANRAKNIKNKARINEDPKDALLRQFQKEIEELKKKLEEGEEVSGSDISGSEEDDEEGELGEDGEKKKKRRDQAGKKKVSPDKMVEMQAKIDEERKALETKLDMEEEERNKARAELERREKDLLKAQQEHQSLLEKLSALEKKVIVGGVDLLAKAEEQEKLLEESNMELEERRRRAEQLRKELEEKEQERLDIEEKYTSLQEEAQGKTKKLKKVWTMLMAAKSEMADLQQEHQREIEGLLENIRQLSRELRLQMLIIDNFIPQDYQEMIENYVHWNEDIGEWQLKCVAYTGNNMRKQTPVPDKKERDPFEVDLSHVYLAYTEESLRQSLMKLERPRTSKGKARPKMGRRKRSAKPETVIDSLLQ
modifications: Alexa647 or TMR on the SNAP tag
In the case of B2, the “stoichiometry N” value [2] is reported as 2.

With B3 the “stoichiometry N” value (SEC-MALS) was 2.
